The values that follow come from patent publication EP4592315A1.

Assay [1] deals with FcRs expressed by THP-1 cells. Nature of the assay: flow cytometry on THP-1 cells (self-expressing FcRs), anti-human IgG-Fc PE. In general terms: Flow cytometry measures light scatter and fluorescence of single cells or particles in a stream.
Assay [2] deals with human FcγRIIb (human) (UniProt P31994). Nature of the assay: flow cytometry on CHOS-hCD32b cells (overexpressing human FcγRIIb), anti-human IgG-Fc PE.
Sequence of human FcγRIIb (human) (P31994 43-310): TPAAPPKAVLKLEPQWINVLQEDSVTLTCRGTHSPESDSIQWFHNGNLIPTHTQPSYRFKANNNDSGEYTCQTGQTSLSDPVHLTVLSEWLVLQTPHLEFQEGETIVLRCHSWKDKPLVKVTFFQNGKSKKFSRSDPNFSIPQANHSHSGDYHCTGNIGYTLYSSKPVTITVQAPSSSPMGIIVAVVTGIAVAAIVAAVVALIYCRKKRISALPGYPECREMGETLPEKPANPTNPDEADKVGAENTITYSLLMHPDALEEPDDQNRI

By EC50 is commonly meant the midpoint of the concentration-response curve. The low end stands for greater potency, the high end for weaker potency. In assay [1], Trastuzumab (antibody) gave a concentration giving a half-maximal response (EC50) of 0.731 nM.

Urelumab (antibody): the EC50 in assay [1] is 0.462 nM. Compared with the last substance, the EC50 is about 1.6-fold lower.

In the case of Pertuzumab (antibody), the EC50 in assay [1] worked out at 0.716 nM; in assay [2], 1.35 nM.
